This note sets out measurements from PMC12508155 (Nature Communications, 2025).

The subject of data set [1] is Gd-II riboswitch (guanidine class II riboswitch) (RNA, riboswitch) GCCCUAGGGACGACCCUAGAAGGCCAAGCAACCUGCGGGACGACCCGC
The data set can be described thus: in-line probing. Particulars: 100 mM KCl, 20 mM MgCl2, 50 mM Tris-HCl pH 8.3, 25 °C, 40 h; for apparent KD: Hill fit, two binding sites.

The target of data set [2] is T1, MgdL (Vreelandella boliviensis, UniProt A0A265DXW6).
T1 construct: gene CE457_11615; full length, N-terminal 6xHis tag with TEV site (cleavage not mentioned), expressed in E. coli BL21
T1 sequence (A0A265DXW6 1-250): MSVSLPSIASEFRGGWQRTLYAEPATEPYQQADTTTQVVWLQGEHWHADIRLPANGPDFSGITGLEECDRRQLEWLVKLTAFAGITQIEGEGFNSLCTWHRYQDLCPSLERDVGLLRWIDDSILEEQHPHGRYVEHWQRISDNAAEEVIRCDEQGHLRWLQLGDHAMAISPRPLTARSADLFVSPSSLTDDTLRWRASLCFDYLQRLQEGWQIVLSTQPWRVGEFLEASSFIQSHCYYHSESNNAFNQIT
The experiment in a line: LC-MS time course, coupled with MgdH. In kind it is biochemical. Particulars: N-(hydroxymethyl)guanidine formed in situ by MgdH from 0.5 mM methylguanidine with 5 mM 2-OG; MgdL 20 µg/mL.

Substrate in data set [3]: O=C(O)CCC(=O)C(=O)O
The experiment in a line: oxygen consumption, Clark-type electrode. In kind it is biochemical, Vreelandella boliviensis. Particulars: methylguanidine fixed at 2.5 mM, Fe(II), ascorbate, MOPS pH 7.2, 30 °C.

Substrate in data set [4]: CN(C)C(=N)N
The experiment in a line: oxygen consumption, Clark-type electrode. It is filed as biochemical, Vreelandella boliviensis. Particulars: 2-OG 5 mM, Fe(II), ascorbate, MOPS pH 7.2, 30 °C.

Substrate in data set [5]: CNC(=N)N
The data set can be described thus: oxygen consumption, Clark-type electrode. It is filed as biochemical, Vreelandella boliviensis. Particulars: 2-OG fixed at 10 mM (5 mM in Methods), Fe(II), ascorbate, MOPS pH 7.2, 30 °C.

As usually defined, the apparent KD is a dissociation constant that holds for the conditions of the assay. For orientation: Km means the substrate concentration at which the rate is half of its maximum. In general, kcat refers to the maximal rate divided by the concentration of active sites.

As for `N=C(N)N`, the “apparent KD” value in data set [1] stood at 93 ± 6 µM.
Take `CN(C)C(=N)N`: the binding result in data set [1] (no conformational change, highest concentration not in material) is “no”.
For the molecule `N=C(N)NCO` [N-(hydroxymethyl)guanidine], the “LC-MS time course, coupled with MgdH” value in data set [2] was “its presence clearly accelerated the fragmentation of N-(hydroxymethyl)guanidine”.
On to `CNC(=N)N`, for which, in data set [1], the “apparent KD” value was determined as 83 ± 5 µM.

B1: MgdH (Vreelandella boliviensis LC1) (protein)
chain: MSQASNDLRLADFQAIPVIDIGDLLSGDLNARKAVAEQLGRAAREVGFFQMVGHGINPSLRQGLINQAKRFFAQPTETKMERYIGLYHHHRGYVPPGEESPDPNNPDMKEAFDLAFELPSDDPDVLAGTALLGPNPWPALEGFRQPVAAYYDAAYQVGRALMGGFALALGHEESHFLHHVTKPPSQLRLIHYPYNPDAEDAQGIGAHTDYECFTLLLPTAPGLEVMNGAGEWIDVPFRDDALVVNIGDMLEIWSNGEFVATSHRVRKVKEERYSFPLFFACDYHTVVAPLPELVKRHGQAFYPPLKAGDHLYAQTIQTFNYLRERLARGEIALPDGAREVGSLGQHGKHKETP
notes: full length, N-terminal 6xHis tag with TEV site (cleavage not mentioned), expressed in E. coli BL21, 41 kDa
As for B1, the figures for the Michaelis-Menten constant (Km) in data set [3], in data set [4] and in data set [5] were 530 ± 50 µM, 250 ± 10 µM and 160 ± 10 µM, respectively. Further, the values for the kcat in data set [3], in data set [4] and in data set [5] were 20.5 ± 0.5 s⁻¹, 17.3 ± 0.2 s⁻¹ and 19.6 ± 0.4 s⁻¹, respectively.
